# Experimental data published in the nanobody polyreactivity screen of Harvey et al. (2022).
# Assay: yeast display, Sf9 membrane polyspecificity reagent, FACS + sequencing; frameworks hold sequencing errors
# Outline: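 Synthetic nanobody libraries on Saccharomyces cerevisiae BJ5465 were galactose-induced for 36–48 hours, stained 1 hour at 4 °C with 10% biotinylated, detergent-solubilized Sf9 membrane reagent and enriched on streptavidin microbeads. FACS then separated cells into low and high (top ~1%) gates by anti-HA (expression) and streptavidin (reagent binding) fluorescence. Genes were colony-PCR amplified, MiSeq 2 × 250 sequenced and CDR-length filtered. A clone's polyreactivity label is that of its gate of origin.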
row,Sequence,polyreactivity (PSR sort gate)
1,QVQLVESGGGLVQAGGSLRLSCAASGSTFQIYAMGWYRQAPGKETELVAAITSSSSTNYADSVKGRFTISRDNAKNTVYLQMNSLKPEDTAVYYCAADVSWRSNWYDYWGQGTQGTVSS,low polyreactivity
2,QVQLVESGGGLVQAGGSLRLSCAASGSTFQKNVMGWYRQAPGKERELVAAITSVGSTNYADSVKGRFTISRDNAKNTVYLQMNSLKPEDTAVYYCAKDQVPYYYVFGVYDYDYWGQGTQVTVSS,low polyreactivity
3,QVQLVESGGGLVQAGGSLRLSCAASGSTFQLYAMGWDRQAPGKERELVAAITSSAGRTYYADSVKGRFTISRDNAKNTVYLQMNSLKPEDTAVYYCAKDGSFTFWGQGTQVTVSS,low polyreactivity
4,QVQLVESGGGLVQAGGSLRLSCAASGSTFQNNPMGSYRQAPGKERELVATISRRGGSTYYADSVKGRFTISRDNAKNTVYLQMNRLKPEDTAVYYCAAQAPNYAHRYYYWGQGTQVTVSS,high polyreactivity
5,QVQLVESGGGLVQAGGSLRLSCAASGSTFQQYGMGWYRQAPGKERELVAAITFSDGNTYYADSVKGRFTISRDNAKNTVYLQMNSLKREDTAVYYCNAGYSYGVSYAEGGYWGQGTQVTVSS,low polyreactivity
6,QVQLVESGGGLVQAGGSLRLSCAASGSTFQRNAMGWYRQAPGKERELVAVITRRGASTYYADSVKGRFTISRDNAKNTVYLQMKSLKPEDTAVYYCNKVPYGRDHHLLFDYWGQGTQVTVSS,high polyreactivity
7,QVQLVESGGGLVQAGGSLRLSCAASGSTFQRYAMGWSRQAPGKERELVAAIDTVGSTNYADSVKGRFTISRDNAKNTVYLQMNSLKPEDTAVYYCAVVTPYWSFYEQVIPSNYWGQGTQVTVSS,low polyreactivity
8,QVQLVESGGGLVQAGGSLRLSCAASGSTFQSNAMGWYRQAPGKERELVAAITVSAGSTYYADSVKGRFTISRDNAKNTVYLQMNSLKPEDTAVYFCAANRYVYPSYRFDYWGQGTQVTVSS,low polyreactivity
9,QVQLVESGGGLVQAGGSLRLSCAASGSTFQSYAMGWYRPAPGKERELVATITWSSGRTYYADSVKGRFTISRDNAKNTVYLQMKSLKPEDTAVYYCAARKRPFYKYDYWGQGTQVTVSS,high polyreactivity
10,QVQLVESGGGLVQAGGSLRLSCAASGSTFQSYTMGWYRQAPGKERELVATITSTSSTSYADSVKGRFTISRDNAKNTVYLQMNSLKPEDTAVYYCNAEGLHWGQGTQVTVSS,low polyreactivity
11,QVQLVESGGGLVQAGGSLRLSCAASGSTFQTYAMGSYRPAPGKERELVAAISKTGASTYYADSVKGRFTISRDNAKNTVNLQMNSLKPEDTAVYYCAAGRYTSYYPRYYYWGQGTQVTVSS,high polyreactivity
12,QVQLVESGGGLVQAGGSLRLSCAASGSTFQTYARGWYRQAPGKERELVASIDYSGGSTYYADSVKGRFTISRDNAKNTVYLQMNSLKPEDTAVYYCAKALSQTWYDGQYGYWGQGTQVTVSS,low polyreactivity
13,QVQLVESGGGLVQAGGSLRLSCAASGSTFQVYAMGWYRQAPGKERELVAAISNGGRTNYADSVKGRFTISRDNAKNTVYLQMNSLKPEDTAVYYCNADQVWWSFDRVLVGYEYWGQGTQVTVSS,low polyreactivity
14,QVQLVESGGGLVQAGGSLRLSCAASGSTFQVYAMGWYRQAPGKERELVASITSGGSTYADSVKGRFTISRDNAKNTVYLQINSLKPEDTAVYYCAAGGYFYPYTYDYWGQGTQVTVSS,low polyreactivity
15,QVQLVESGGGLVQAGGSLRLSCAASGSTFQWYAMGWYRQAPGKERELVAGITRTGSTYYADSVKGRFTISRDNAKNTVYLQMNSLKPEDTAVYYCAAKWHTASGKYYYWGQGTQVTVSS,high polyreactivity
16,QVQLVESGGGLVQAGGSLRLSCAASGSTFQWYTMGWYRQAPGKERELVAAISRSGGRTYYADSVKGRFTISRDNAKNTVYLQMNSLKPEDTAVYYCAARWGRLPEQYRYDYWGQGTQVTVSS,high polyreactivity
17,QVQLVESGGGLVQAGGSLRLSCAASGSTFQYKAMGWYRQAPGKERELVAAISRRGGSTYYADSVKRRFTISRDNAKNTVYFQMNSLKPADTAVYYCAKEKGYWSGYDYWGQGTQVTVSS,high polyreactivity
18,QVQLVESGGGLVQAGGSLRLSCAASGSTFQYNAMGWYRQAPGKERELVARISSSGGRTYYADSVKGRFTISRDNAKNTVYLQMNSLKPEDTAVYYCNKGYPYVAYDYWGQGTQVTVSS,high polyreactivity
19,QVQLVESGGGLVQAGGSLRLSCAASGSTFQYYAMGWYRQAPGKERELVAAISDGTNTNYADSVKGRFTISRDNAKNTVYLQMNSLKPEDTAVYYCAARFYSIVKYVGIGTDEYDYWGQGTQVTVSS,low polyreactivity
20,QVQLVESGGGLVQAGGSLRLSCAASGSTFQYYAMGWYRQAPGKERELVAAISYGGSRTYYADSVKGRFTISRDNAKNNVYLQMNSLKPEDTAVYYCAKVKYRALAPYYYWGQGTQVTVSS,high polyreactivity
21,QVQLVESGGGLVQAGGSLRLSCAASGSTFQYYAMGWYRQAPGKEREMVAAISASVDTTFYADSVKGRFTISRDNAKNTVYLQMNSLKPEDTAVYYCATDWPHWRKVYWFDYWGQGTQVTVSS,low polyreactivity

row,Sequence,polyreactivity (PSR sort gate)
1,QVQLVESGGGLVQAGGSLRLSCAASGSTFRANAMGWYRQAPGKERELVAAISQSGGITYYADSVKGRFTISRDNAKNTVYLQMNSLKPEDTAVYYCAALGYRIKRGRFYYWGQGTQVTVSS,high polyreactivity
2,QVQLVESGGGLVQAGGSLRLSCAASGSTFRANAMGWYRQAPGKERELVAAISSGDSTNYADSVKGRFTISRDNAKKSVYLQMNSLKPEDTAVYYCAAVYTYYWWGSYGYWGQGTQVTVSS,low polyreactivity
3,QVQLVESGGGLVQAGGSLRLSCAASGSTFREYAMGWSRQAPGKERELVAAISSGDSTNYADSVKGRFTISRDNAKNTVYLQMNSLKPEDTAVYYCAADAPGAAAVQNDYWGQGTQVTVSS,low polyreactivity
4,QVQLVESGGGLVQAGGSLRLSCAASGSTFRFNAMGWYRQAPGKERELVAAITGIGGITYYADSVKGRFTISRDNAKNTVYFQMNSLKPEDTAVYYCNAAGGYKPYLQDVDSRYDYWGQGTQVTVSS,high polyreactivity
5,QVQLVESGGGLVQAGGSLRLSCAASGSTFRFYGMGWYRQAPGKERELVAAITYRSGITYADSGKGGFSISRDNANNTVYLLMNSLKPEETAVYYCAARARRYTDEYDYWGQGTQVTVSS,low polyreactivity
6,QVQLVESGGGLVQAGGSLRLSCAASGSTFRFYTMGWYRQAPGKERELVATITSGGSTNYADSVKGRFTISRDNAKNTVYLQMNSLKPEDTAVYYCAASSVLTNHDYWGQGTQVTVSS,low polyreactivity
7,QVQLVESGGGLVQAGGSLRLSCAASGSTFRGNAMGWYRPAPGKERELVASITGGGSTNYADSVKGRFTISRDNAKNTVYVPMNSLKPEDTAGYYCAADWGADFYWGQGTQVTVSS,low polyreactivity
8,QVQLVESGGGLVQAGGSLRLSCAASGSTFRGNAMGWYRQAPGKERELVAAITGRGGRTYYADSVKGRFTISRDNAKNTVYLQMNSLKPEDTAVYYCAAYSRYKPYGITAYDYWGQGTQVNVSS,high polyreactivity
9,QVQLVESGGGLVQAGGSLRLSCAASGSTFRGYAMGWYRQAPGKERELVAAISWSAGSTYYADSVKGRFTISRDNAKNTVYLQMNRLKPEDTAVYYCAKASVALRYYSYSLGRDYWGQGTQVTVSS,low polyreactivity
10,QVQLVESGGGLVQAGGSLRLSCAASGSTFRHYAMGWYRQAPGKERELVAVISWGGTSTYYADSVKGRFTISRDNAKNTVYLQMNSLKPEDTAVYYCNKAYFPIFKGYEMYYWGQGTQVTVSS,low polyreactivity
11,QVQLVESGGGLVQAGGSLRLSCAASGSTFRINAMGWYRLAPGKEREFVAAIRWNGGSTNYADSVKGRFTISRDNAKNTVYVQMNSLKPEDTAVYYCAADGYIGWRHIYEYWGQGTQVTVSS,low polyreactivity
12,QVQLVESGGGLVQAGGSLRLSCAASGSTFRIYAMGWYRQAPGKERELVAAITSGGDTNYADSVKGRFTISRDNANNTVYLQMKSLKPEDTSVYYCAADGHSVYTELDYWGQGTQVTVSS,low polyreactivity
13,QVQLVESGGGLVQAGGSLRLSCAASGSTFRIYAMGWYRQAPGKERELVAGITRRGGSTFYADSVKGRFTISRDNAKNTVYLQMNSLKPEDTAVYYCAARFRGGMDYWGQGTQVTVSS,high polyreactivity
14,QVQLVESGGGLVQAGGSLRLSCAASGSTFRLYAIGWYRQAPWKERELDAAISSGGTTKYADSVKGRFTISRDNAKKTVYLQMNRLKPEDTAVYYCNAVYHWGNPGEYATLPRYDYWGQGTQVTVSS,high polyreactivity
15,QVQLVESGGGLVQAGGSLRLSCAASGSTFRLYAMGWYRQAPGKEREFVAAISFRGGSTYYADSVKGRFTISRDNAKNTVYLQMNSLKPEDTAVYYCNARVRVRLGRNWSSYYYWGQGTQVTVSS,high polyreactivity
16,QVQLVESGGGLVQAGGSLRLSCAASGSTFRNYAMGWYRQAPGKERELVAAISGSGGRTNYADSVKGRFTISRDNAKNTVYLQMNSLKPEDTAVYYCNARFPDWALSEISHSTTYGYWGQGTQVTVSS,low polyreactivity
17,QVQLVESGGGLVQAGGSLRLSCAASGSTFRPYGMGWYRQAPGKERELVAAINSGDSTYYADSVKGRFTISRDNAKNTFYLQMNSLKPEDTAVYYCNADVWWDTWFLDGYDYWGQGTQVTVSS,high polyreactivity
18,QVQLVESGGGLVQAGGSLRLSCAASGSTFRQNTMGWYRQAPGKEREFVAAINYSGGSTNYADSVKGRFTISRDNAKNTVYLQMNSLKPEDTAVYYCAVRQYYYKRMGYWGQGTQVTVSS,high polyreactivity
19,QVQLVESGGGLVQAGGSLRLSCAASGSTFRQYAMGWYRQAPGKERELVAAISSSGSTTYYADSVKGRFTISRDNAKNTVDVQMNSRKPEDTAVYYCAATYGFYYFPYDYWGQGTQVTVSS,low polyreactivity
20,QVQLVESGGGLVQAGGSLRLSCAASGSTFRQYAMGWYRQAPGKERELVAAITWRGDNTYYADSVKGRFTISRDNAKNTVYLQMNSLKPEDTAVYYCAARWSYRLYWGYGYWGQGTQVTVSS,low polyreactivity
